According to paper doi:10.1101/2025.08.30.673231:
pKd: −log10 of the molar value. “And” between values parts separate entries of the source, which are not always exact repeats. Equal values may be shown once.

How the values were obtained:
[1] = target: 6xHis-GST-tagged Pichia pastoris Pex5 full length (Pichia pastoris) (UniProt P33292); assay: BLI
[2] = target: Pichia pastoris Pex5 full length (tag removed) (Pichia pastoris) (UniProt P33292); assay: ITC
[3] = target: Pichia pastoris Pex5 NTD (residues 1-276, tag removed) (Pichia pastoris) (UniProt P33292); assay: SEC-SAXS
[4] = target: Pichia pastoris Pex5 CTD (residues 259-576, tag removed) (Pichia pastoris) (UniProt P33292); assay: SEC-SAXS
[5] = target: Pichia pastoris Pex5 full length (tag removed) (Pichia pastoris) (UniProt P33292); assay: SEC-SAXS
[6] = target: 6xHis-GST-tagged Pichia pastoris Pex5 NTD (residues 1-276) (Pichia pastoris) (UniProt P33292); assay: BLI
[7] = target: 6xHis-GST-tagged Pichia pastoris Pex5 CTD (residues 259-576) (Pichia pastoris) (UniProt P33292); assay: BLI
[8] = target: Pex5 NTD variants (the Pex5 single E57R mutant and the double mutants R45E/R48E and M61A/F64A); assay: BLI

**Q.** With “Pichia pastoris Pex8 (ΔPTS1) (domain or fragment)” as the substance, how does the pKd [1] read?
**A.** 6.32

**Q.** What does the source list for “Pichia pastoris Pex8 (residues 33-713), N-terminally truncated (domain or fragment)”?
**A.** stoichiometry N [2]: 1; stoichiometry N [3]: 1; stoichiometry N [4]: 1; stoichiometry N [5]: 1; pKd [1]: 7.11; pKd [6]: 6.17; pKd [7]: 5.36; fold increase in KD against Pex5 NTD WT [8]: 6 fold and 8 fold
